According to patent publication US20230192897A1 (NUMAB THERAPEUTICS, published 2023):

What was measured:
Fc tagged human PDL1 = target: T1, Fc tagged human PDL1 (human, UniProt Q9NZQ7 19-239); experiment: SPR
T1 construct: Bought (Sino Biological, cat. 10084-H02H); captured on the SPR chip; also called PDL1-Fc chimeric protein
Procedure: (§1) Affinity to PDL1 of the different species was determined by SPR measurements using a Biacore T200 device (GE Healthcare). An antibody specific for the Fc region of human IgGs was immobilized on a sensor chip (CM5 sensor chip, GE Healthcare) by amine-coupling. For all formats, with the exception of the Fc containing Morrison formats, PDL1-Fc chimeric protein from different species were captured by the immobilized antibody.
(§2) Three-fold serial dilutions of the molecules specific for PDL1 (0.12-90 nM) were injected into the flow cells for three minutes and dissociation was monitored for 10 minutes. After each injection cycle, surfaces were regenerated with one injection of a 3 M MgCl₂ solution. The apparent dissociation (kd) and association (kₐ) rate constants and the apparent dissociation equilibrium constant (KD) were calculated using one-to-one Langmuir binding model. Affinity to CD137 of the different species was determined using the identical setup as for PDL1 with the exception that CD137-Fc chimeric protein from different species were captured by the immobilized antibody.

Fc tagged human CD137 = target: T2, Fc tagged human CD137 (human, UniProt Q07011 24-186); experiment: SPR
T2 construct: also called CD137-Fc chimeric protein
Procedure: as §1, §2

human PDL1 on cells = human PDL1 on cells (human, UniProt Q9NZQ7 19-290); experiment: cell-based or functional assay
[1] = target: T3, CD137 on Jurkat NFkB reporter cells (human, UniProt Q07011 24-255); experiment: cell-based or functional assay
[2] = target: T3, CD137 on Jurkat NFkB reporter cells; experiment: cell-based or functional assay; remark: listed apart in the source
biotinylated human PDL1 [3] = target: T4, biotinylated human PDL1 (human, UniProt Q9NZQ7 19-238, limits assumed, biotinylated); experiment: competition ELISA B7.1/PDL1
T4 construct: also called biotinylated PDL1
Procedure: Plates were blocked for 1 hour at room temperature by adding 300 μl of PBS with 1% BSA and 0.2% tween (dilution buffer) to each well. […] The mixtures were pre-incubated for 1 hour at room temperature under gentle agitation on a rotating mixer (21 rpm) and added to the microplates after 3 wash cycles with 450 μl wash buffer per well. Plates were incubated for 1.5 hours at room temperature under gentle agitation, then 10 ng/ml streptavidin-polyHRP40 was added to each microplate well after three washes with 450 μl of wash buffer per well. After 1 h incubation at RT, plates were washed three times with 450 μl wash buffer and TMB substrate solution was added. The enzymatic reaction was stopped after 6 minutes by addition of 1 M HCl and absorbance was measured at 450 nm using 690 nm as a reference wavelength. For calculation of IC₅₀ values, a four-parameter logistic (4PL) curve fit was performed in Graph Pad Prism using reference subtracted values.

biotinylated human PDL1 [4] = target: T4, biotinylated human PDL1; experiment: competition ELISA PD-1/PDL1
Procedure: Plates were blocked for 1 hour at room temperature by adding 300 μl of PBS with i%BSA and 0.2% tween (dilution buffer) to each well. Inhibitors were serially diluted in 3-fold steps to final concentrations ranging from 300 to 0.005 ng/ml in dilution buffer containing 1 ng/ml biotinylated human PDL1. The mixtures were pre-incubated for 1 hour at room temperature under gentle agitation on a rotating mixer (21 rpm) and added to the microplates after 3 wash cycles with 450 μl wash buffer per well. Plates were incubated for 1.5 hours at room temperature under gentle agitation, then 10 ng/ml streptavidin-polyHRP40 was added to each microplate well after three washes with 450 μl of wash buffer per well. After 1 h incubation at RT, plates were washed three times with 450 μl wash buffer and TMB substrate solution was added. The enzymatic reaction was stopped after 6 minutes by addition of 1 M HCl and absorbance was measured at 450 nm using 690 nm as a reference wavelength. For calculation of IC₅₀ values, a four-parameter logistic (4PL) curve fit was performed in Graph Pad Prism using reference subtracted values.

B1: PRO1476 (other)
chain: DIQMTQSPSSLSASVGDRVTITCQASQSINNVLAWYQQKPGKAPKLLIYRASTLASGVPSRFSGSGSGTDFTLTISSLQPEDFATYYCQSSYGNYGDFGCGTKVTVLGGGGGSQSQLQESGPGLVKPSETLSLTCKASGFSFSSGYDMCWVRQPPGKGLEWIACVVAGSVDITYYASWAKGRVTISKDSSKNQVSLKLSSVTAADTAVYFCARKDAYSDAFNLWGQGTLVTVSSGGGGSGGGGSGGGGSGGGGSFQLTQSPSSLSASVGDRVTITCQASQSINDYLAWYQQKPGKSPKLLIYKASTLASGVPSRFSGSGSGTDFTLTISSLQPEDFATYYCQQGYIITDIDNVFGTGTKVTVLGGGGGSEVQLVESGGGLVQPGGSLRLSCAASGFSFSNSYWICWVRQAPGKCLEWIGCTFVGSSDSTYYANWAKGRFTISRDNSKNTVYLQMNSLRAEDTAVYYCARHPSDAVYGYANNLWGQGTLVTVSSGGGGSGGGGSIQMTQSPSSLSASVGDRVTITCQSSESVYSNNQLSWYQQKPGQPPKLLIYDASDLASGVPSRFSGSGSGTDFTLTISSLQPEDFATYYCAGGFSSSSDTAFGGGTKLTVLGGGGGSGGGGSGGGGSGGGGSEVQLVESGGGLVQPGGSLRLSCAASGFSLSSNAMGWVRQAPGKGLEYIGIISVGGFTYYASWAKGRFTISRDNSKNTVYLQMNSLRAEDTATYFCARDRHGGDSSGAFYLWGQGTLVTVSS
notes: trispecific scDb-scFv; also called 33-03-G02 sc03 scDb-i/38-02-A04 sc13 scDb-o/19-01-H04 sc03 scFv
Kd (Fc tagged human PDL1): 0.009 nM
koff (Fc tagged human PDL1): 3.1e-05 s⁻¹
Kd (Fc tagged human CD137): 1.1 nM
koff (Fc tagged human CD137): 0.00037 s⁻¹
kon (Fc tagged human CD137): 350000 M⁻¹ s⁻¹
IC50 (ng/ml), NF-AT potency assay, +HSA (human PDL1 on cells): 53.5 ng/mL
rel. IC50 (avelumab/test), +HSA (human PDL1 on cells): 0.66 fold
IC50 (ng/ml) (EC50 in Table 16C), NFkB reporter, HCC827 + IFNg, 24 h, +HSA [1]: 3.9 ng/mL
rel. IC50 (PRO1186/test), 24 h [1]: 1.83 fold
Area under the curve (calculated using PRO885 normalized data), first line (6 h by the order of the upper part) [2]: 93.5
Area under the curve (calculated using PRO885 normalized data), second line (24 h by the order of the upper part) [2]: 135
EC50 [ng/ml], NF-kB reporter, HCC827 + IFNg, +HSA, 6 h [2]: 5.97 ng/mL
IC10/EC90 ratio, first line (6 h by the order of the upper part) [2]: 34.2
IC10/EC90 ratio, second line (24 h by the order of the upper part) [2]: 35.7
Maximum NF-kB activation (rel. to PRO1186) [%], first line (6 h by the order of the upper part) [2]: 36.4%
Maximum NF-kB activation (rel. to PRO1186) [%], second line (24 h by the order of the upper part) [2]: 76.1%
rel. Area under the curve (AUCsample/AUCPRO1186), first line (6 h by the order of the upper part) [2]: 0.39 fold
rel. Area under the curve (AUCsample/AUCPRO1186), second line (24 h by the order of the upper part) [2]: 0.59 fold
rel. EC50 (EC50, PRO1186/EC50, sample), NF-kB reporter, 6 h [2]: 2.02 fold
rel. EC50 (EC50, PRO1186/EC50, sample), NF-kB reporter, 24 h [2]: 1.83 fold
rel. IC10/EC90 (ratio of sample/ratio of PRO1186), first line (6 h by the order of the upper part) [2]: 2.66 fold
rel. IC10/EC90 (ratio of sample/ratio of PRO1186), second line (24 h by the order of the upper part) [2]: 1.63 fold
IC50 (biotinylated human PDL1 [3]): 9.49 ng/mL
rel. IC50 (IC50 avelumab/IC50 test) (biotinylated human PDL1 [3]): 1.1 fold
IC50 (biotinylated human PDL1 [4]): 2.84 ng/mL
rel. IC50 (IC50 avelumab/IC50 test) (biotinylated human PDL1 [4]): 0.8 fold
